Results from patent US20240409658A1 (Seagen, published 2024).

Tests used:
[1] = biological target: T1, human CD228 (R&D Systems Custom02; Lot DCWR021505A) (human, UniProt P08582 20-709, limits assumed); experiment: ELISA on plate-coated human CD228, pH 6.66
T1 sequence (looked up): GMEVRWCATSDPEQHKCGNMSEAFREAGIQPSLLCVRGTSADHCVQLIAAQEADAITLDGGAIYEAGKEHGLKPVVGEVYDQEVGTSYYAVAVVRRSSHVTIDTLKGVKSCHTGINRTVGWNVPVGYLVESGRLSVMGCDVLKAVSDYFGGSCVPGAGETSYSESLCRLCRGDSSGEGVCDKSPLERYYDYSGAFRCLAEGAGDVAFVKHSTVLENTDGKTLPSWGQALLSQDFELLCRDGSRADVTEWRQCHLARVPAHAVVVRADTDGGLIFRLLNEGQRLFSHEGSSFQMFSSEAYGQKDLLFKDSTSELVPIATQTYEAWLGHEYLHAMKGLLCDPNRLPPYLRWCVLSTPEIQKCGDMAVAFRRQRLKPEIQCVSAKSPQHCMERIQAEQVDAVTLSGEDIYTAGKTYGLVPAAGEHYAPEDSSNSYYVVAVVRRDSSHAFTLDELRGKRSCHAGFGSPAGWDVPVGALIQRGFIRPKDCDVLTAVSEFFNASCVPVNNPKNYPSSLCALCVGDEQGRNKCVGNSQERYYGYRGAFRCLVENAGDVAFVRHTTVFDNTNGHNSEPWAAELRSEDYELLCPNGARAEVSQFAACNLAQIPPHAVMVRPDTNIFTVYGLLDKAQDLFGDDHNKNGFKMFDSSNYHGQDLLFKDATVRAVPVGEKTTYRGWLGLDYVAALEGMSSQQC
Procedure: (§1) The ability of various anti-CD228 ADCs to bind to CD228 was evaluated at pH values ranging from 4 to 7.5 using a standard ELISA protocol. Briefly, 100 ng of human CD228 (R&D Systems Custom02; Lot DCWR021505A) or BSA (Sigma; Catalog No. A7030-100G) were diluted in PBS and added to each well overnight at 4° C. Plates were then washed three times with PBS-T (EMD Millipore; Catalog No. 5246531EA). After washing, plates were blocked with 3% (w/v) BSA in PBS-T for 1 hour at room temperature. Excess blocking buffer was then removed and the primary antibody was added in 3-fold dilutions in diluent buffer (0.15M citrate-phosphate buffer pH 4.0-7.5) starting at an antibody concentration of 60 nM. After incubating for 1 hour at room temperature, the plates were washed 3 times and then incubated with secondary antibody (Goat anti-human IgG Fc-specific HRP-conjugated, Jackson ImmunoResearch code #109-035-098) in PBS-T with 1% BSA. After incubating for 30 minutes at room temperature, plates were washed 3 times. 100 μl TMB substrate (Life Technologies; Cat #002023) was then added to each well. After incubating 10 minutes at room temperature, 100 μl H2SO4 was added to each well to stop the reaction, plates were covered with clear plate seal and read on an Envision at […]. pH-dependent binding for hL49, cL235, CD228Ab1, CD228Ab2 and CD228Ab3, CD228Ab4 are shown in FIG. 34A-34F.

[2] = biological target: T1, human CD228 (R&D Systems Custom02; Lot …); experiment: ELISA on plate-coated human CD228, pH 7.1
Procedure: as §1

[3] = biological target: T2, human CD228 on the cell surface (RPMI-7951 cells stably expressing human CD228; A375 cells) (human, UniProt P08582 20-709); experiment: saturation binding by flow cytometry, RPMI-7951 cells stably expressing human CD228; PE anti-human IgG secondary; row 'ug/mL' of the drawn table headed 'kD'
T2 construct: whole, on cells; also called p97; melanotransferrin
T2 sequence (looked up): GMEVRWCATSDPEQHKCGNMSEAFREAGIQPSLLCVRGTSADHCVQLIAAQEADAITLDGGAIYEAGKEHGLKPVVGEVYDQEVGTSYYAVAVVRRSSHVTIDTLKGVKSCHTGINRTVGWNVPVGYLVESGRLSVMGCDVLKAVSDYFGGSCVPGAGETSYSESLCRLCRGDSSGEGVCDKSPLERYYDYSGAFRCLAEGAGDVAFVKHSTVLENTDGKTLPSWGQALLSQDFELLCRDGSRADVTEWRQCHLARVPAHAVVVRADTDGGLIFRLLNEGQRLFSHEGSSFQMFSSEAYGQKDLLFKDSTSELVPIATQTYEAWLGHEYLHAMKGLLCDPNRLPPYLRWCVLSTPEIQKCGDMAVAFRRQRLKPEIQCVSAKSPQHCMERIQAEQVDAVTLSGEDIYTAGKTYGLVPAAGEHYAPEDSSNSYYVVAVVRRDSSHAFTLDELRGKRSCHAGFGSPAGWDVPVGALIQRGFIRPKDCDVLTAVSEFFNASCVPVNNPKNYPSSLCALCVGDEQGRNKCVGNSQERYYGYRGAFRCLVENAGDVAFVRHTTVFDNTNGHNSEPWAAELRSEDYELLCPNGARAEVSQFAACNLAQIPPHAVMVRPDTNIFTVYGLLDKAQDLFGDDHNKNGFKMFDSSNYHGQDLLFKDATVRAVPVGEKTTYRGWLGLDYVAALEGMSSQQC
Procedure: (§2) The KD for each resulting antibody was then determined by a saturation binding assay. Briefly, 1×10⁵ RPMI-7951 cells stably expressing human CD228 were aliquoted per well of a 96-well v-bottom plates. Each CD228 antibody was added in concentrations ranging from 0.05 pM to 340 nM and incubated on ice for 60 minutes. Cells were pelleted and washed 3× with PBS/BSA followed by addition of 10 ug/ml of a PE labeled anti-human IgG goat secondary antibody and incubated on ice for an additional 60 minutes. Cells were pelleted and washed 3× with PBS/BSA and resuspended in 125 μL of PBS/BSA. Fluorescence was analyzed by flow cytometry, using percent of saturated fluorescent signal to determine percent bound and to subsequently calculate apparent KD. The binding curves for recombinant human anti-CD228 antibodies are shown in FIG. 13 and the KD for cL49ec (chimeric LA9 with an S239C mutation in the […] constant region), hL49 HALA G1, hL49 HALB G1, and hL49 HALC G1 are shown in Table 8. The antibody called “HALC,” “hL49,” or “hL49-HALC” which comprises heavy chain “HA” and the light chain “LC” was selected for use in all other experiments.

[4] = biological target: T1, human CD228 (R&D Systems Custom02; Lot …); experiment: ELISA on plate-coated human CD228, pH 5.6
Procedure: as §1

[5] = biological target: T1, human CD228 (R&D Systems Custom02; Lot …); experiment: ELISA on plate-coated human CD228, pH 7.5
Procedure: as §1

[6] = biological target: T1, human CD228 (R&D Systems Custom02; Lot …); experiment: ELISA on plate-coated human CD228, pH 7.4
Procedure: as §1

[7] = biological target: T1, human CD228 (R&D Systems Custom02; Lot …); experiment: ELISA on plate-coated human CD228, pH 5.9
Procedure: as §1

[8] = biological target: T1, human CD228 (R&D Systems Custom02; Lot …); experiment: ELISA on plate-coated human CD228, pH 6.3
Procedure: as §1

[9] = biological target: T2, human CD228 on the cell surface …; experiment: saturation binding by flow cytometry on RPMI-7951 cells stably expressing human CD228; apparent KD
Procedure: as §2

EC50 [1]: 1.54 nM | EC50 [2]: 1.1 nM | Kd [3]: 0.6 µg/mL | EC50 [4]: 21.8 nM | EC50 [5]: 1.18 nM | EC50 [6]: 0.856 nM | EC50 [7]: 5.31 nM | EC50 [8]: 2.96 nM | Kd [9]: 4 nM
B1: hL49 HALC G1 (antibody, human IgG1, kappa, V domains shown)
VH: QVQLQESGPGLVKPSETLSLTCTVSGDSITSGYWNWIRQPPGKGLEYIGYISDSGITYYNPSLKSRVTISRDTSKNQYSLKLSSVTAADTAVYYCARRTLATYYAMDYWGQGTLVTVSS
VL: DFVMTQSPLSLPVTLGQPASISCRASQSLVHSDGNTYLHWYQQRPGQSPRLLIYRVSNRFSGVPDRFSGSGSGTDFTLKISRVEAEDVGVYYCSQSTHVPPTFGQGTKLEIKT
notes: Humanized L49, IgG1 kappa
